Experimental data reported in US20030113725A1.

Assays:
[1] = system: HA epitope tagged Del301-303 alpha-2B adrenergic receptor
[2] = target: HA epitope tagged wild-type alpha-2B adrenergic receptor (human) (UniProt P18089); assay: cell-based or functional assay
[3] = target: HA epitope tagged Del301-303 alpha-2B adrenergic receptor (human) (UniProt P18089); assay: cell-based or functional assay
Gi = assay: cell-based or functional assay
Gi/Go = assay: cell-based or functional assay

Molecule | inhibition of adenylyl cyclase (epinephrine, CHO membranes) (Gi) [% inhibition] | maximal inhibition of adenylyl cyclase (partial agonist oxymetazoline, CHO membranes) (Gi) [% inhibition] | stimulation of MAP kinase (10 µM epinephrine, CHO cells) (fold increase over basal) (Gi) | Max Inhibition (%) of adenylyl cyclase, BHT-933 (Gi) [%] | Max Inhibition (%) of adenylyl cyclase, UK 14304 (Gi) [%] | Max Inhibition (%) of adenylyl cyclase, clonidine (Gi) [%] | Max Inhibition (%) of adenylyl cyclase, guanabenz (Gi) [%] | Max Inhibition (%) of adenylyl cyclase, norepinephrine (Gi) [%] | Max Inhibition (%) of adenylyl cyclase, oxymetazoline (Gi) [%] | inhibition of adenylyl cyclase (epinephrine, lower expressing CHO lines) (Gi) [% inhibition] | maximal inhibition of adenylyl cyclase (epinephrine, higher expressing CHO lines) (Gi) [% inhibition] | epinephrine-stimulated accumulation of inositol phosphates (10 µM, intact CHO cells) (Gi/Go) [% over basal] | high affinity dissociation constant KH of the agonist epinephrine (competition with [3H]yohimbine without GTP) (Gi/Go) [nM] | percentage of receptors in the high-affinity state (% RH), epinephrine competition without GTP (Gi/Go) [%] | also measured
GRK2 (βARK1) |  |  |  |  |  |  |  |  |  |  |  |  |  |  | agonist-promoted phosphorylation as percent of wild-type [1]: the Del301-303 receptor displayed -56% of wild-type phosphorylation; basal phosphorylation, compared with the wild-type receptor [1]: Basal phosphorylation was equivalent between the two receptors
GRK2 (βARK1) (enzyme) |  |  |  |  |  |  |  |  |  |  |  |  |  |  | agonist-promoted whole cell receptor phosphorylation (norepinephrine, COS-7 cells coexpressing GRK2) (fold increase) [2]: 5.84; agonist-promoted whole cell receptor phosphorylation (norepinephrine, COS-7 cells coexpressing GRK2) (fold increase) [3]: 3.28
Del322-325 alpha-2C adrenergic receptor, P18825 1-462 (receptor) MASPALAAALAVAAAAGPNASGAGERGSGGVANASGASWGPPRGQYSAGAVAGLAAVVGFLIVFTVVGNVLVVIAVLTSRALRAPQNLFLVSLASADILVATLVMPFSLANELMAYWYFGQVWCGVYLALDVLFCTSSIVHLCAISLDRYWSVTQAVEYNLKRTPRRVKATIVAVWLISAVISFPPLVSLYRQPDGAAYPQCGLNDETWYILSSCIGSFFAPCLIMGLVYARIYRVAKRRTRTLSEKRAPVGPDGASPTTENGLGAAAGAGENGHCAPPPADVEPDESSAAAERRRRRGALRRGGRRRAGAEGGAGGADGQGAAESGALTASRSPGPGGRLSRASSRSVEFFLSRRRRARSSVCRRKVAQAREKRFTFVLAVVMGVFVLCWFPFFFIYSLYGICREACQVPGPLFKFFFWIGYCNSSLNPVIYTVFNQDFRPSFKHILFRRRRRGFRQ |  |  |  | 26.7 | 30.8 | 20.9 | 30 | 34.9 | 12.8 | 10 | 31 | 11 | 7.3 | 31 | impairment of maximal adenylyl cyclase inhibition against wild-type (higher expressing CHO lines) (Gi): 50 % impairment; impairment of inositol phosphate accumulation against wild-type (Gi/Go): 60 % impairment
wild-type alpha-2C adrenergic receptor, P18825 1-462 (receptor) MASPALAAALAVAAAAGPNASGAGERGSGGVANASGASWGPPRGQYSAGAVAGLAAVVGFLIVFTVVGNVLVVIAVLTSRALRAPQNLFLVSLASADILVATLVMPFSLANELMAYWYFGQVWCGVYLALDVLFCTSSIVHLCAISLDRYWSVTQAVEYNLKRTPRRVKATIVAVWLISAVISFPPLVSLYRQPDGAAYPQCGLNDETWYILSSCIGSFFAPCLIMGLVYARIYRVAKRRTRTLSEKRAPVGPDGASPTTENGLGAAAGAGENGHCAPPPADVEPDESSAAAERRRRRGALRRGGRRRAGAEGGAGGADGQGAGPGAAESGALTASRSPGPGGRLSRASSRSVEFFLSRRRRARSSVCRRKVAQAREKRFTFVLAVVMGVFVLCWFPFFFIYSLYGICREACQVPGPLFKFFFWIGYCNSSLNPVIYTVFNQDFRPSFKHILFRRRRRGFRQ |  |  |  | 56.8 | 67.6 | 38.5 | 53.8 | 76.6 | 27 | 73 | 60 | 30 | 3.7 | 49 | 

Second part, led by results:

inhibition of adenylyl cyclase (epinephrine, CHO membranes) (Gi) [% inhibition] | maximal inhibition of adenylyl cyclase (partial agonist oxymetazoline, CHO membranes) (Gi) [% inhibition] | stimulation of MAP kinase (10 µM epinephrine, CHO cells) (fold increase over basal) (Gi) | Max Inhibition (%) of adenylyl cyclase, BHT-933 (Gi) [%] | Max Inhibition (%) of adenylyl cyclase, UK 14304 (Gi) [%] | Max Inhibition (%) of adenylyl cyclase, clonidine (Gi) [%] | Max Inhibition (%) of adenylyl cyclase, guanabenz (Gi) [%] | Max Inhibition (%) of adenylyl cyclase, norepinephrine (Gi) [%] | Max Inhibition (%) of adenylyl cyclase, oxymetazoline (Gi) [%] | inhibition of adenylyl cyclase (epinephrine, lower expressing CHO lines) (Gi) [% inhibition] | maximal inhibition of adenylyl cyclase (epinephrine, higher expressing CHO lines) (Gi) [% inhibition] | epinephrine-stimulated accumulation of inositol phosphates (10 µM, intact CHO cells) (Gi/Go) [% over basal] | high affinity dissociation constant KH of the agonist epinephrine (competition with [3H]yohimbine without GTP) (Gi/Go) [nM] | percentage of receptors in the high-affinity state (% RH), epinephrine competition without GTP (Gi/Go) [%] | Molecule | also measured
60 | 50 | 57 |  |  |  |  |  |  |  |  |  |  |  | polymorphic Lys251 alpha-2A adrenergic receptor, P08913 16-465 (receptor) MGSLQPDAGNASWNGTEAPGGGARATPYSLQVTLTLVCLAGLLMLLTVFGNVLVIIAVFTSRALKAPQNLFLVSLASADILVATLVIPFSLANEVMGYWYFGKAWCEIYLALDVLFCTSSIVHLCAISLDRYWSITQAIEYNLKRTPRRIKAIIITVWVISAVISFPPLISIEKKGGGGGPQPAEPRCEINDQKWYVISSCIGSFFAPCLIMILVYVRIYQIAKRRTRVPPSRRGPDAVAAPPGGTERRPKGLGPERSAGPGGAEAEPLPTQLNGAPGEPAPAGPRDTDALDLEESSSSDHAERPPGPRRPERGPRGKGKARASQVKPGDSLPRRGPGATGIGTPAAGPGEERVGAAKASRWRGRQNREKRFTFVLAVVIGVFVVCWFPFFFTYTLTAVGCSVPRTLFKFFFWFGYCNSSLNPVIYTIFNHDFRRAFKKILCRGDRKRIV | 
46 | 35 | 15 |  |  |  |  |  |  |  |  |  |  |  | wild-type Asn251 alpha-2A adrenergic receptor, P08913 16-465 (receptor) MGSLQPDAGNASWNGTEAPGGGARATPYSLQVTLTLVCLAGLLMLLTVFGNVLVIIAVFTSRALKAPQNLFLVSLASADILVATLVIPFSLANEVMGYWYFGKAWCEIYLALDVLFCTSSIVHLCAISLDRYWSITQAIEYNLKRTPRRIKAIIITVWVISAVISFPPLISIEKKGGGGGPQPAEPRCEINDQKWYVISSCIGSFFAPCLIMILVYVRIYQIAKRRTRVPPSRRGPDAVAAPPGGTERRPNGLGPERSAGPGGAEAEPLPTQLNGAPGEPAPAGPRDTDALDLEESSSSDHAERPPGPRRPERGPRGKGKARASQVKPGDSLPRRGPGATGIGTPAAGPGEERVGAAKASRWRGRQNREKRFTFVLAVVIGVFVVCWFPFFFTYTLTAVGCSVPRTLFKFFFWFGYCNSSLNPVIYTIFNHDFRRAFKKILCRGDRKRIV | 
